Source: publication PMC2132475

Biological target: α-dystroglycan on embryonic Xenopus myotomal muscle cells (Xenopus (endogenous in embryonic Xenopus muscle cells))
Assay: immunostaining of cells or tissue

- percent inhibition of mAb IIH6 binding (at 33 nM E3): 41%
- percent inhibition of mAb IIH6 binding (at 3.3 μM E3): 94%
Substance: laminin fragment E3 (domain or fragment)
